Experimental data as given in the domain aggregation screens of Martell et al. (2025).

Experiment: soluble fraction after stress (log2 fold change); higher = more stays soluble; pooled small domains, quantitative proteomics
Details: stress: 75 degC
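Also: 20 min heating vs room temperature control held 20 min.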

Going from “HMNPTSLTFRSNVKDGKVYVDGIFKGSSDLDFDLPKGRHSIRIEKDGYVPFAKTINLIKALVIDFNMEKA” to “HMNPTTQIQYNLPKSEFVSIYIYDLIGNRVKSLINNYQDAGYKSVYWDAMNDLGQPVSAGMYIY”, the “soluble fraction (log2)” value rises from -2.02 to -0.0727.

First: HMNQKKFIQADYEDRLFDHLAFEVKDMEKIISMMRREKFTITDEPFRLSPTGSLIAFVEDPDRTLIELIER
Second: HMNQNAMIGAHIRNLRLAKKLTLKQLSDESGLSVGFLSQLERGMSSIAIDTLARLAHILGADLSSFF
The “soluble fraction (log2)” value of the first is higher: -0.41 for the first, -2.65 for the second.

Going from “HMNQRQLQIKQMLDVAQEVFLKQLKTVFPDVSEMTIRRDLILLEDMGYAVRTHGGAVSINRF” to “HMNQRTATVTASQLNVRSGPSTAYSIVHVLRQGETVEVIGESDGWYQIRLKDGRVGWSSGQYLNLN”, the “soluble fraction (log2)” value rises from -2.42 to -0.142.

First: HMNQSAVMAERMKQTKNRILQTAKEIFLEQGYKRTTIRQIVERSGITSGSIYNIFSSKEEIFSALVDDL
Second: HMNQSYQLWIKDDELGPTPRSVGVLNEHFEVDPAALTNYDAELLRRATFGISLEPRGGSPTGQP
The “soluble fraction (log2)” value of the first is lower: -3 for the first, -0.192 for the second.

Compared with “HMNQTPQISYSQFIADVRSGQIKDVNIDSDNRTIVGHKFSGEEFTTFSPGDNKLVDELLNYNVEIKTSP”, “HMNREEFLSQLERLLYDIPAQEREEALEYYNGYFDDAGKEKEAEVIQELGSPGKVAAIIKADLSG” is lower in “soluble fraction (log2)” value: 0.611 for the first, 0.12 for the second.

Compared with “HMNRETAISIYRILHILEEPYKEVFTLRTLGDLSYREIADIFGKQENWARVTYHRAKLKIREALVS”, “HMNRIFQERVVPAELDTLRADKVAASLFSDFSRNELAHWIKMGDLSINGGVKKAKDKLFEGDVLILDVEIV” is higher in “soluble fraction (log2)” value: -2.23 for the first, -0.944 for the second.

Going from “HMNRKILVLLAGKEQITDNVSVMQSIHRYAFINTATINKAQHEILIEKEEIRQEALTLIHEFLK” to “HMNRKLKAKATREKIYKSAEKLFSQNDYNKVSVDAIVEAAGVAKGSFYVHFASKDALIAMLINDH”, the “soluble fraction (log2)” value rises from -0.97 to -0.448.

Compared with “HMNRMKLLREQHNLSQTDLAKILNISRQSYNFYENEKRDPDTTMLIRIADFFNVSLDYLLGRTNN”, “HMNRPYVELFSGLGQEEAQQIVQKLQEDEVDYKFSGDSTILVKEDVVDQTKATLVQEGYPKS” is higher in “soluble fraction (log2)” value: -2.84 for the first, 0.153 for the second.

“HMNSEEINDVRKAVDELPTHLREILLLNYFQQMSYVQISDSLEIPLGTVKSRLHAAVAAFRNAWQSSQEE” and “HMNSEELFLRRIAQELIDQHGKDLHRIIVVLPSNRSKVFLKKFLFEILGSAFLTPQLMLLPQFVKSIV” are within 0.2 log units of each other in “soluble fraction (log2)” value: -0.484 for the first, -0.425 for the second.

Compared with “HMNSFGWESFVGEKGVTDTDLRPSGWIVIKDKRLFALTEGTFIEKGVSVEILSVEGNRIVVREIS”, “HMNSHKIIDRLNQMITEKDLSEEMPAITEAFKNNERSAEDLKKYVAENLSKKLNAEEREKFVSLILQYRN” is higher in “soluble fraction (log2)” value: -2.9 for the first, -0.0788 for the second.

Going from “HMNSILFAITKEGGVVYGGKPVGVNGVRPLVRRLLQSEEMPVILQVDEKADAGLVIRVIDESKLGGASKV” to “HMNSIQEQIEKYVYSLAPVTIERYESLKNGDIEDIEFEKLRKSISSKIINEKIDNKKQVAILSHLKKMYSD”, the “soluble fraction (log2)” value rises from -0.372 to -0.159.

Going from “HMNSKIIVESIIKSKNGIAKVADLVEGGVSRQSIKKMYADGYIKRISRGYYTLTSEPVSSDEQVISS” to “HMNSKMTYSELITSMENKEVESVKISSSGDVASVKLKNSKTEKEVKIPSLDSFMTYTEQYLKTGEITLEE”, the “soluble fraction (log2)” value rises from -0.645 to 0.0529.

First: HMNSKMTYSELVTNITNKEVESIKISSTGSTASVKLKNSKSEKEVNIPSLDSFMSYTEEYLKTGDFTLDEE
Second: HMNSLKNKNNLIALVGASNDKNKYGNKILLDLVSKGHNVVPINPKEDTVAGLKSYNNVSELSEKPSI
The “soluble fraction (log2)” value of the first is higher: 0.586 for the first, -0.523 for the second.

First: HMNSLPFSNFMNEVEAGRVVEVKIQGNNISGVLANGKTFSTYSPNYPELVEKLSSNGVSIVATPQ
Second: HMNSRTLAYSDFIRKVDKGEVSAVVIDGEQVQVQTKDGQTFVTIQPQSEQMNDKLVEQLIAKDISVKAERQ
The “soluble fraction (log2)” value of the first is higher: 0.28 for the first, -0.0843 for the second.

Going from “HMNSSLFLARQVHALRKKAGLTLQQLSRKSDVSVSTLSKIEKGQLSPTYEKIVSLARGLDVPIAALFHE” to “HMNSSTVDLAKEFLIDLLSSVEKMPASEVQEEAKNAGYSVASIRRAKDNLNIKPFKDGSAWYWKLPSIFK”, the “soluble fraction (log2)” value rises from -2.45 to -0.329.

First: HMNSSTYIVTFKVDGEEDIVETYQWGDRIIVPEVEAKDDYVFIGWDAQIPEFMPERNLEFTAI
Second: HMNSTNYQVIITANGGLNIRAGASTAYARIGGYAKGTVVTILAESNGFGKTDKGWISLNYTSKDLD
The “soluble fraction (log2)” value of the first is higher: -0.895 for the first, -3.11 for the second.

Going from “HMNTAALSLQRRNEIKKWLLEEKTLTVAALSNRFNVTYETIRRDLEILEKEGFLKKVYGGAALNERV” to “HMNTAIDGLIEKVGMFAMEKKAISVDQVKENFSINGEQAESVIKQLETIGVLGKKNEDGTHTVM”, the “soluble fraction (log2)” value rises from -2.83 to 0.159.

First: HMNTDALIGKTGYVTEIVGERHGRIQFSGGEWSARTEGVSIPVGAEVRVDRIDGATAVVSAV
Second: HMNTDVEKQKVFTALFDDYFRRNSMTSLEKQLFLTALKTNFQNAQKTVAKDHPYYATYSLIISAIENYR
The “soluble fraction (log2)” value of the first is higher: 0.114 for the first, -0.525 for the second.

Compared with “HMNTEEKILEKEFLMLYSELGLQPKNIYELMENTGLKYEKLVEMLLQLQLKGLVEQPSYNYYSRL”, “HMNTEEVGSYLKKLRLEHSFTQKELAGKLYITHQAVSNWEKGKALPDIGILSQLGDIYGISIDNLLLK” is lower in “soluble fraction (log2)” value: -1.28 for the first, -2.04 for the second.

Compared with “HMNTEKRVFAGVENTRLDHFLVEQFPEFSRTFIQQMIKSANVIVNGNIEKASYKLREGDTIMTRPM”, “HMNTELFTKNLFNKLEVLLGEKNWKSKTAQLLNISSDAFYKKIRNESQLNLHELLLIKDTFKISIDALLDE” is lower in “soluble fraction (log2)” value: -0.489 for the first, -1.35 for the second.

Compared with “HMNTETAVTKAIDQIQVMMDLRNRSVSFTRDQETGTDIIKVIDDNTGDTIRQMPSEELLTFMKNLTQ”, “HMNTFKNIFIQEGDLFNLKKNDNQIIFAKEGILINENKKIFRLLNGKIISTNNNRLIGFEFDKIDYNLSN” is higher in “soluble fraction (log2)” value: 0.165 for the first, 0.561 for the second.

First: HMNTGIPHQEVIKKLYSFAEGGDWKGLKEELNRIKEYTLFYNSVKELADSFEINRLIEKLKTYIF
Second: HMNTGLSEREHEIAQLVLQGRTYAEIGAELFISPRTAEHHIGQIRRRLAATSRSDLLAKLRVAMNTTEGAG
The “soluble fraction (log2)” value of the first is higher: -0.127 for the first, -2.36 for the second.

Going from “HMNTISYTELIKQIDEGNVEKVEMTVGSTSVKVKLQGQEEEKKAIVPNTQAFVELIQEKTLEGNQIDLKQN” to “HMNTLSPVRILAILDGRSSMAEWQLAEELGVSIDNLSEILNKMSTDGQIRLVPSEDGRMVVP”, the “soluble fraction (log2)” value rises from 0.0122 to 0.597.

First: HMNTPALRQRTQDVPALLIHFAKYFATKGQTPISFAPDFLEALKDYPWPGNVRELRNLVESMVV
Second: HMNTPHLTPREREVLKGIVDGLINKEIAARMGVSVATVITHRNNLTEKLGTRSVSALTIFAVMHGIVR
The “soluble fraction (log2)” value of the first is higher: -0.133 for the first, -2.55 for the second.

“HMNTPNYDVLYRGLADADAGQIMEALQKSNIPFKVDSHSGVLLVPADQVHEARLKLASQGLPRG” and “HMNTPTLLLYGGKDHSVPEAGIRHLRAHLSANDRGEYRFYPNAPHLLLQSRQWQQVSQDISQWLAMT” are within 0.2 log units of each other in “soluble fraction (log2)” value: -0.119 for the first, 0.037 for the second.

Going from “HMNTRWDDAAQTWLRKVIEQQPVLVQISAAKRLRDQAEQRAREAGEEVVTEQHVKRAGLELGFGEP” to “HMNTSITVPSLKGLSQEAATLKMERLGLHVEVSDTGFVRSLAFGTVLQQSIAPGEKVKPGRLVYITINSD”, the “soluble fraction (log2)” value falls from 0.0588 to -2.2.

“HMNTVAGAISDLSFKVRGSEDIEKLNRLKALSIQAKLDVQGQEEAERLISELEAKYGSLGMTVDKVSGKIA” and “HMNTYEIIGGDNRARGPVTGEELSQWIREGRASGHTMARVSDGEHWQPLGSFPEFVGPLQGLPW” are within 0.2 log units of each other in “soluble fraction (log2)” value: 0.0323 for the first, 0.0698 for the second.

“HMNTYVLPDALKSQLSVEDTGMLTKQLQALPETLAEGVLDSLSQMLSKNTLQNPVGWMLAVMKRAREGNFN” and “HMNVAVSEADAKAAALERVSGATEADIRMELELDDGYYVYEGDIIYQQKEYEFEIDAQTGKFLKWSEER” are within 0.2 log units of each other in “soluble fraction (log2)” value: -0.305 for the first, -0.121 for the second.

First: HMNVDLLEARIPIQSHGMRLDQVVAELFPDYSRNRLAAWIKEGRLTVDGKTMKPRDRALASAHVVLEVV
Second: HMNVGKYILTLAAKEGYSQSDVARRTGISRQMLSYIIAGERKLTLPQALKIESLLSLKTGTLILMQDED
The “soluble fraction (log2)” value of the first is higher: -0.3 for the first, -3.35 for the second.

First: HMNVNEIREMYPEGTQIVLTEMRGENQMPYGLKGTVKFVDDAGQIHMKWENGSSLALNINEDTFEKVE
Second: HMNVPATAEAYEALLADAESVGKSLWGHEAKRFAAEQALLSAGLREVIQVDPDKARELALRLRGLLDEYRG
The “soluble fraction (log2)” value of the first is higher: 0.91 for the first, 0.19 for the second.

Going from “HMNVQGFVFDLAEPLDKVPSIEGFPLKLEDPLTLVAAVNKDRSINALFAELSKLNIKIKSMRNE” to “HMNVVSIEHIRTHLQNHLSLIGRSIEESFNEAKVIAFVASLFLTHRGYASVSQDMGTNGEIYLQDLW”, the “soluble fraction (log2)” value falls from -0.0601 to -0.465.

Going from “HMNVWGLSERELEATRLLIEGFSSKEASARMGISPSTVRSLWGRARAKMGVDSIEDARELVA” to “HMNYAVTAARRESILNAALEIFGKSGYNGSSVKQVALAVGMTEAGVLHHFGTKSNLLIEVLRV”, the “soluble fraction (log2)” value rises from -0.415 to 0.396.

Going from “HMNYLDVNIPVTSAVWMGKQLPEMGTLIYLTPDKDVEGMLFIKQATKDKPDGEYIEAKVLGYKEGRVLFDF” to “HMPAEEVPLYKAVVVTTPPNRLRVRFSPAGDFKRWLQSGEEVDVYQELGDWRRIEPNGWSSAEWLQRVG”, the “soluble fraction (log2)” value rises from -0.964 to -0.465.

Going from “HMPAGWIPARIRLADYPQLRSLAWHVQGIDTLTPTEALDIYERNARHLDAQAMSAQEQDLLASLRLALS” to “HMPALPGNELLRNLMLEHGLKQVDLAEIGSQGVVSEILSGKRRINRRHADLLARRFSLPAELFSR”, the “soluble fraction (log2)” value rises from -0.888 to -0.217.

Compared with “HMPANLTPDYFKAEQWYRSASTNEEKMLALEQMLAVMPKHKGTEHLQADLKRKLSQLKDASAQ”, “HMPAPAPDIPYHSRVSVRRADGFYEGTWTNTAPILDYTGRWMVNVSLGGKRVFVPVEEVVVH” is lower in “soluble fraction (log2)” value: 0.19 for the first, -1.05 for the second.

“HMPAPKPSGALSLKDEPLYAASDSKRRSGTVSGTYYRWDGENVNGRMRITNKQENIGKAGQVTGWITAH” and “HMPASTSIPYSDFISRVESGDVQEAKIGESAITGTYKDGSQFKTVKPPTLDTNLMPTLIQNKVNVVGVEP” are within 0.2 log units of each other in “soluble fraction (log2)” value: 0.0409 for the first, 0.176 for the second.

Going from “HMPAVGGVVKGAVVSVGRNEVRLDIGGLAIGIIRGPELDKHVDLRIGDEVEATVITLDNEFGELELSL” to “HMPAVTEQTKTNLRRAFWQLYEQKPIQKITVKQITDLAGYNRGTFYLYFKDVYDLLDDIENK”, the “soluble fraction (log2)” value rises from -1.37 to -1.09.

First: HMPAVTEQTRANLRTAFWSLYREKPTSKITVREITDRAGYNRATFYLYYRDVYDLFEQIEQEIL
Second: HMPDAGQRRYLELVTALAGARSLTIDDLERRAIRFAEWGNGYSGRTARQFIDTLLQDRGVAEEL
The “soluble fraction (log2)” value of the first is lower: -2.37 for the first, -0.731 for the second.

For “HMPDAIPLETIIKNVNVLAGFLINSKTFTEDDIVMAYNNIMKIKGDHTDEKTLTNDVYTLLTEMN”, the “soluble fraction (log2)” value was -0.714.
